In experiment [1] the target is HLA-A*02:03. Briefly: IEDB peptide-MHC binding, purified MHC/direct/fluorescence; filed as Kd, often an IC50 or EC50 that approximates it; ≥ and ≤ were set here for values at or beyond the usual limits of such assays.
Experiment [2] has as its target HLA-A*02:11. Described as above.
Experiment [3] addresses HLA-A*02:12. The experiment is described as above.
Experiment [4] addresses HLA-A*02:16. The description is as above.
Experiment [5] has as its target HLA-A*02:19. The experiment is described as above.
Experiment [6] concerns the target HLA-A*24:03. Described as above.
For experiment [7], the target named is HLA-A*29:02. The description is as above.
Experiment [8] concerns the target HLA-A*68:02. The experiment is described as above.
For experiment [9], the target named is HLA-A*02:01. The experiment can be described thus: IEDB peptide-MHC binding, purified MHC/competitive/fluorescence; filed as Kd, often an IC50 or EC50 that approximates it; ≥ and ≤ were set here for values at or beyond the usual limits of such assays.
Experiment [10] addresses HLA-A*03:01. Described as above. The conditions noted are these: source organism: Orthohantavirus andesense.
Experiment [11] deals with HLA-A*26:01. The description is as above.
The target in experiment [12] is HLA-A*69:01. The description is as above.
For experiment [13], the target named is HLA-B*15:01. The description is as above. The conditions noted are these: source organism: Orthohantavirus andesense.
The target of experiment [14] is HLA-B*18:01. Described as above.
Experiment [15] addresses HLA-B*27:03. The experiment is described as above.
Experiment [16] concerns the target HLA-B*39:01. The description is as above.
The target in experiment [17] is HLA-B*46:01. The description is as above.
Experiment [18] deals with HLA-B*51:01. The description is as above.
In experiment [19] the target is HLA-B*57:01. The description is as above.
For experiment [20], the target named is HLA-A*01:01. The experiment can be described thus: IEDB peptide-MHC binding, purified MHC/direct/fluorescence; filed as Kd, often an IC50 or EC50 that approximates it; ≥ and ≤ were set here for values at or beyond the usual limits of such assays.
Experiment [21] addresses HLA-A*02:01. The description is as above.
Experiment [22] addresses HLA-A*03:01. The experiment is described as above.
For experiment [23], the target named is HLA-A*11:01. Described as above. As to conditions: source organism: Mammarenavirus lassaense.
Experiment [24] addresses HLA-A*31:01. The experiment is described as above.
The target of experiment [25] is HLA-A*69:01. The experiment is described as above. As to conditions: source organism: Mammarenavirus lassaense.
Experiment [26] concerns the target HLA-B*07:02. Described as above. As to conditions: source organism: Mammarenavirus lassaense.
The target of experiment [27] is HLA-B*15:01. The experiment is described as above.
The target of experiment [28] is HLA-B*18:01. The description is as above.
Experiment [29] addresses HLA-B*27:05. The description is as above.
For experiment [30], the target named is HLA-B*39:01. The experiment is described as above.
In experiment [31] the target is HLA-B*40:01. The description is as above. As to conditions: source organism: Mammarenavirus lassaense.
The target of experiment [32] is HLA-B*44:02. The experiment is described as above.
For experiment [33], the target named is HLA-B*46:01. The experiment is described as above.
In experiment [34] the target is HLA-B*48:01. Described as above.
The target of experiment [35] is HLA-B*57:01. The experiment is described as above.
In experiment [36] the target is HLA-B*58:01. Described as above. The conditions noted are these: source organism: Mammarenavirus lassaense.
In experiment [37] the target is HLA-B*15:01. The experiment can be described thus: IEDB peptide-MHC binding, purified MHC/competitive/fluorescence; ≥ and ≤ were set here for values at or beyond the usual limits of such assays. The conditions noted are these: source organism: Sudan ebolavirus.
The target of experiment [38] is HLA-A*23:01. Briefly: IEDB peptide-MHC binding, purified MHC/direct/fluorescence; filed as Kd, often an IC50 or EC50 that approximates it; ≥ and ≤ were set here for values at or beyond the usual limits of such assays. As to conditions: source organism: Reston ebolavirus.
The mark [39] stands for this setting: source organism: Orthohantavirus andesense.
The mark [40] stands for this setting: source organism: Mammarenavirus lassaense.
[41] abbreviates: source organism: Reston ebolavirus.
Setting [42] is: source organism: Isla Vista hantavirus.
[43] abbreviates: source organism: Orthohantavirus tulaense.
The mark [44] stands for this setting: source organism: Orthohantavirus puumalaense.

pIC50, pKd: −log10 of the molar value. Some results are limits rather than exact numbers.

The pKd is the negative decadic logarithm of the Kd, by convention in mol/L. A high value points to a small Kd. As a reminder, the pIC50 is −log10 of the IC50, conventionally taken in molar units.

As for STGKSIKFK, the negative-log Kd (pKd) in experiment [1] (setting [39]), in experiment [2] (setting [39]), in experiment [3] (setting [39]), in experiment [4] (setting [39]), in experiment [5] (setting [39]) and in [6] (setting [39]) was not above 4.70 each time. In addition, the negative logarithm of the Kd (pKd) was not above 4.70 in experiment [7] (setting [39]); not above 4.70 in experiment [8] (setting [39]); not above 4.70 in [9] (setting [39]); 7.83 in experiment [10]; not above 4.70 in experiment [11] (setting [39]); not above 4.70 in experiment [12] (setting [39]). The pKd in [13], in [14] (setting [39]), in [15] (setting [39]), in experiment [16] (setting [39]), in [17] (setting [39]) and in experiment [18] (setting [39]) was not above 4.70 in each case. The pKd in experiment [19] (setting [39]) is not above 4.70.
For KHDEEFCDM, the pKd in [20] (setting [40]), in [21] (setting [40]), in experiment [22] (setting [40]), in experiment [23], in [7] (setting [40]) and in experiment [24] (setting [40]) was not above 4.70 each time. Also, the pKd in experiment [25], in experiment [26], in [27] (setting [40]), in experiment [28] (setting [40]), in experiment [29] (setting [40]) and in [30] (setting [40]) was not above 4.70 throughout. In addition, the negative logarithm of the Kd (pKd) in [31], in [32] (setting [40]), in experiment [33] (setting [40]), in experiment [34] (setting [40]), in [35] (setting [40]) and in experiment [36] was not above 4.70 in each case.
The sequence GVPPKVVSY had a pIC50 in experiment [37] of 4.24. The pKd in experiment [1] (setting [41]), in experiment [2] (setting [41]), in experiment [3] (setting [41]), in experiment [4] (setting [41]), in [5] (setting [41]) and in [22] (setting [41]) was not above 4.70 each time. Further, the pKd in [38] was not above 4.70; in experiment [6] (setting [41]) it was not above 4.70; in [8] (setting [41]), not above 4.70; in [27] (source organism: Reston ebolavirus - Reston), 5.59; in experiment [9] (setting [41]), not above 4.70; in experiment [11] (setting [41]), not above 4.70. The negative-log Kd (pKd) in [12] (setting [41]), in experiment [14] (setting [41]), in experiment [15] (setting [41]), in experiment [16] (setting [41]), in experiment [17] (setting [41]) and in experiment [18] (setting [41]) was not above 4.70 each time. Moreover, the pKd in experiment [19] (setting [41]) was not above 4.70.
Consider SSLRYGNVL, for which the pKd in experiment [20] (setting [42]), in experiment [21] (setting [42]), in [2] (setting [43]), in [3] (setting [43]), in [22] (setting [42]) and in experiment [6] (setting [43]) was not above 4.70 in each case. In addition, the pKd in experiment [7] (setting [42]), in experiment [24] (setting [42]), in experiment [8] (setting [43]), in experiment [27] (setting [42]), in [28] (setting [42]) and in [29] (setting [42]) was not above 4.70 throughout. Further, the negative-log Kd (pKd) in [30] (setting [42]) is 5.40; in experiment [32] (setting [42]), not above 4.70; in experiment [33] (setting [42]), not above 4.70; in experiment [34] (setting [42]), not above 4.70; in experiment [35] (setting [42]) it was not above 4.70; in experiment [11] (setting [44]), not above 4.70. Besides, the negative-log Kd (pKd) in experiment [12] (setting [44]), in experiment [15] (setting [44]) and in experiment [18] (setting [44]) was not above 4.70 throughout.

For the origin of these results see the Immune Epitope Database (IEDB).
